Data on one molecule can be found in PMC3815138, “Dynamic Interplay between the Periplasmic and Transmembrane Domains of GspL and GspM in the Type II Secretion System” (PLoS ONE, 2013).

The target of one assay is T1, GST-OutC (Dickeya dadantii, UniProt Q01564 1-272).
T1 construct: OutC (GspC), type II secretion system of Dickeya dadantii; also called full-length OutC carrying a GST-tag; source: E. coli BL21(DE3), pGEX-6P-3 plasmid; immobilized on Glutathione Sepharose
As to the kind of experiment: pull-down; GST-Out derivatives immobilized on Glutathione Sepharose as baits; His-OutC purified by nickel affinity as prey, incubated 1 h; 1% Triton X-100, 15°C; five washes; immunoblot. The conditions noted are these: both partners purified.

Another assay concerns the target T2, GST-OutL (Dickeya dadantii, UniProt E0SLF6 1-400).
T2 construct: OutL (GspL), type II secretion system of Dickeya dadantii; also called full-length OutL carrying a GST-tag; source: E. coli BL21(DE3), pGEX-6P-3 plasmid; immobilized on Glutathione Sepharose
T2 sequence: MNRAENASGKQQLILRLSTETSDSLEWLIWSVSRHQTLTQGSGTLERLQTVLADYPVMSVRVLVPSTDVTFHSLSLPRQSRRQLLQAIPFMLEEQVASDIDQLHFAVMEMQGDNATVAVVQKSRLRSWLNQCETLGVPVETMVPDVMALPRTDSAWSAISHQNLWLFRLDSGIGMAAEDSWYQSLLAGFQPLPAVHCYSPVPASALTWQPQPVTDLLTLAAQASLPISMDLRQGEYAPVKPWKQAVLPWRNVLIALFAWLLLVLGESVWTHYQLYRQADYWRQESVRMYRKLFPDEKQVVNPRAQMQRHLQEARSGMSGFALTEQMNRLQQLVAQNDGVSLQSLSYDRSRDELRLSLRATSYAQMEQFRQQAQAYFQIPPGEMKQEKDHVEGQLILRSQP
The assay is described as above. To be noted: both partners purified.

B1: His-OutC (natural protein)
chain: not shown
notes: OutC (GspC), bitopic inner membrane component of the type II secretion system of Dickeya dadantii; also called GspC; full-length OutC; source: E. coli BL21(DE3), pET20b(+) plasmid
Consider B1, for which the binding result with GST-OutC and with GST-OutL was “binds” each time.
